The values that follow come from paper doi:10.1101/2020.09.29.318410.

The assay concerns the target T4Lnano fusion protein (CBP - ER/K motif - T4L - linker - CaM). As to the kind of experiment: crystal structure.

Broadly, the stoichiometry N is the number of molecules, sites or subunits per partner or assembly. Turning to “T4Lnano fusion protein (CBP - ER/K motif - T4L - linker - CaM)”, the stoichiometry N came out at 2.
